This data set has as its target T1, Bcl-TEV IRES iADAR (tandem-dimer MCP, BAD peptide fused to the N-terminus of ADAR2-DD(E488Q & F697Y), TEV cut site, Bcl-xL, TagBFP).
T1 chain: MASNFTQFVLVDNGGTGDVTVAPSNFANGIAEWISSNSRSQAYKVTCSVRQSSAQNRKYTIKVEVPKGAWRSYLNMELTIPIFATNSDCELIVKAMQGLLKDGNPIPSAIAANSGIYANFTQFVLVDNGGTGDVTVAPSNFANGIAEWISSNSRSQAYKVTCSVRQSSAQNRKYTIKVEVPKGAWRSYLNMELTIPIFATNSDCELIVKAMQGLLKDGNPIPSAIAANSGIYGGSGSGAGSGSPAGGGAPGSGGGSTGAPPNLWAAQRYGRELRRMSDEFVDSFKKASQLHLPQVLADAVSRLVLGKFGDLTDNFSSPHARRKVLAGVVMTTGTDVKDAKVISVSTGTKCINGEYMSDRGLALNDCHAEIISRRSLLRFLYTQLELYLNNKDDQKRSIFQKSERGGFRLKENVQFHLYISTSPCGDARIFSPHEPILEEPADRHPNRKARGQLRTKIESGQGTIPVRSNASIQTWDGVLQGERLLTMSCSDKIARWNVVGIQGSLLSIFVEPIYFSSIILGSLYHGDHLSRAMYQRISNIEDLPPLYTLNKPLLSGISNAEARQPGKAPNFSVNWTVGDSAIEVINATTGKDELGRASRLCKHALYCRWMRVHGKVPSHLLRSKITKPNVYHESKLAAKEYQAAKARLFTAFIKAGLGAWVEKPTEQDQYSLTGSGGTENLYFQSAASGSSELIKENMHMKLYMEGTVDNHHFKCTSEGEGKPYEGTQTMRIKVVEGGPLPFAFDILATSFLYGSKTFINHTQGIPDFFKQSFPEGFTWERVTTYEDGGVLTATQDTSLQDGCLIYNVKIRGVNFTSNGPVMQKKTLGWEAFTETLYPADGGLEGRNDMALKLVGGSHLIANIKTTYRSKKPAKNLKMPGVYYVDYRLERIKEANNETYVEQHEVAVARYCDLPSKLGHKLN

B1: TEV Protease (protein)
chain: MGESLFKGPRDYNPISSTICHLTNESDGHTTSLYGIGFGPFIITNKHLFRRNNGTLLVQSLHGVFKVKNTTTLQQHLIDGRDMIIIRMPKDFPPFPQKLKFREPQREERICLVTTNFQTKSMSSMVSDTSCTFPSSDGIFWKHWIQTKDGQCGSPLVSTRDGFIVGIHSASNFTNTNNYFTSVPKNFMELLTNQEAQQWVSGWRLNADSVLWGGHKVFMVKPEEPFQPVKEATQL
As for B1, the “fold change of the mean RFU (mNeonGreen-to-mCherry), Bcl-TEV IRES iADAR co-transfected with TEV protease” value turned out to be 17× for TEV protease.

The values are drawn from US20260176653.
